According to PMC12806343:

Experiments:
[1] = target: membrane-bound PD-L1 on MDA-MB-231 cells (Homo sapiens?) (UniProt Q9NZQ7); test: cell retention assay; conditions: aptamer on slide, 5' amine (NH2), BLI: 1x PBS pH 7.4, aptamers 3-12 uM, 300 s association, 600 s dissociation, temperature not stated, EMSA: TBE-PAGE, binding buffer composition not given
[2] = target: membrane-bound PD-L1 on MDA-MB-231 cells, PNGase F treated (UniProt Q9NZQ7); test: cell retention assay; conditions: 5' amine (NH2), BLI: 1x PBS pH 7.4, aptamers 3-12 uM, 300 s association, 600 s dissociation, temperature not stated, EMSA: TBE-PAGE, binding buffer composition not given
Chain of membrane-bound PD-L1 on MDA-MB-231 cells, PNGase F treated (Q9NZQ7 19-290): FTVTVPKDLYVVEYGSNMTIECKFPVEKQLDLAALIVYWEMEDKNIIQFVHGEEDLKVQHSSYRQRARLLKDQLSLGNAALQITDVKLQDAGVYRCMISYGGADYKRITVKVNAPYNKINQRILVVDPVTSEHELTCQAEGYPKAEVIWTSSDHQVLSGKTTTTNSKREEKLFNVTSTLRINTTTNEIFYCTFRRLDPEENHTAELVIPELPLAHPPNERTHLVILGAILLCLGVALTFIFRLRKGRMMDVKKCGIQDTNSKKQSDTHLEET

Chain of membrane-bound PD-L1 on MDA-MB-231 cells (Homo sapiens?) (Q9NZQ7 19-290): as above

ATAGTCCCTGGCGTGCTTGGTCGGCAGAGCAGGTACGGTGTCA [Apt45]
binding signal (% cells retained) ([1]; negligible adhesion): 5.9 | binding signal (% cells retained) [2]: 46

GTACCTGCTCTCCGCGCGAAGCACGCCAGGGACT [Tr-Apt13]
binding signal (% cells retained) [1]: 86.8

TGACACCGTACCTGCTCTCCGCGCGAAGCACGCCAGGGACTAT [Apt13]
binding signal (% cells retained) ([1]; comparison with Apt45): 72.9 | binding signal (% cells retained) ([1]; comparison with Tr-Apt13): 62.8
